The conditions of data set [1]: unmodified native insulin or proinsulin, background; cited from earlier work.
Data set [2] is described as follows: isoelectric point (measured by isoelectric focusing). It is filed as physicochemical. The following applies: insulin derivatives of the invention. The protocol: Characteristic of these insulin derivatives is an isoelectric point between 5.8 and 8.5 (measured by isoelectric focusing). The isoelectric point--which is shifted into the neutral range by comparison with the isoelectric point of the unmodified native insulin or proinsulin (at pH = 5.4)--is determined by the additional positive charge(s) located on the surface of the molecule as a result of the basic modification. This makes these insulin derivatives with a basic modification less soluble in the physiological neutral range than is, for example, native insulin or proinsulin, which are normally in dissolved form in the neutral range.
The isoelectric point of the insulin derivatives of the formula II is between 5.5 and 9.0 (measured by isoelectric focusing).

Read-outs that look alike come from different tables or passages of the source.

The values that follow come from patent US5506202A, “Insulin derivatives, a process for the preparation thereof, the use thereof, and a pharmaceutical formulation containing them” (Hoechst Aktiengesellschaft, priority 1988, dated 1996).

On to “native insulin: unmodified native insulin, comparison for isoelectric point and biological activity”, for which, in data set [1], the isoelectric point is reported as 5.4 pH. In the case of “proinsulin: proinsulin, comparison for isoelectric point”, in data set [1], the isoelectric point is given as 5.4 pH.

On to A0-Arg-de-Thr-B30-human insulin, for which the isoelectric point entry in data set [2] was “about 6.2”.
